Measured values as given in the supplement of paper PMC10567573.

B1: EPB41L3 (parent)
chain: SELGDYDPDECGSDYISEFRFAPN

Variants of: B1
Assay: protein stability index of a GFP-peptide fusion (GPS, HEK-293T) (PSI 1-6); higher = more stable
Conditions: c terminus: a fixed tail appended
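Also: lentivirally expressed fusions sorted by FACS into six bins by GFP to DsRed ratio, PSI derived from sequencing read proportions per bin multiplied by bin number.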

Variant	protein stability index
SELGDYDPDECGSDYISEFRFAHN [P23H]	2.44
SELGDYDPDECGSDYISEFRFARN [P23R]	1.53
SELGDYDPDECGSDYISEFRFAFN [P23F]	2.96
SELGDYDPDECGSDYISEFRFAYN [P23Y]	2.89
SELGDYDPDECGSDYISEFRFAEN [P23E]	4.66
SELGDYDPDECGSDYISEFRFAKN [P23K]	2.68
SELGDYDPDECGSDYISEFRFACN [P23C]	2.12
SELGDYDPDECGSDYISEFRFAMN [P23M]	3.26
SELGDYDPDECGSDYISEFRFANN [P23N]	2.42
SELGDYDPDECGSDYISEFRFAVN [P23V]	2.53
SELGDYDPDECGSDYISEFRFADN [P23D]	4
SELGDYDPDECGSDYISEFRFAGN [P23G]	2.37
SELGDYDPDECGSDYISEFRFASN [P23S]	2.51
SELGDYDPDECGSDYISEFRFALN [P23L]	2.81
SELGDYDPDECGSDYISEFRFAAN [P23A]	2.48
SELGDYDPDECGSDYISEFRFATN [P23T]	3.15
SELGDYDPDECGSDYISEFRFAWN [P23W]	2.47
SELGDYDPDECGSDYISEFRFAIN [P23I]	2.7
SELGDYDPDECGSDYISEFRFSPN [A22S]	3.33
SELGDYDPDECGSDYISEFRFCPN [A22C]	2.59
SELGDYDPDECGSDYISEFRFIPN [A22I]	2.24
SELGDYDPDECGSDYISEFRFEPN [A22E]	4.24
SELGDYDPDECGSDYISEFRFWPN [A22W]	3.47
SELGDYDPDECGSDYISEFRFNPN [A22N]	3.46

Variant	protein stability index
SELGDYDPDECGSDYISEFRFFPN [A22F]	3.5
SELGDYDPDECGSDYISEFRFLPN [A22L]	3.73
SELGDYDPDECGSDYISEFRFGPN [A22G]	4.21
SELGDYDPDECGSDYISEFRFMPN [A22M]	3.48
SELGDYDPDECGSDYISEFRFQPN [A22Q]	2.39
SELGDYDPDECGSDYISEFRFKPN [A22K]	4.27
SELGDYDPDECGSDYISEFRFHPN [A22H]	2.13
SELGDYDPDECGSDYISEFRFDPN [A22D]	4.92
SELGDYDPDECGSDYISEFRFRPN [A22R]	4.12
SELGDYDPDECGSDYISEFRFVPN [A22V]	3.42
SELGDYDPDECGSDYISEFRFTPN [A22T]	1.85
SELGDYDPDECGSDYISEFRFYPN [A22Y]	3.51
SELGDYDPDECGSDYISEFRFPPN [A22P]	4
SELGDYDPDECGSDYISEFRYAPN [F21Y]	4.55
SELGDYDPDECGSDYISEFRSAPN [F21S]	5.07
SELGDYDPDECGSDYISEFRCAPN [F21C]	4.69
SELGDYDPDECGSDYISEFRVAPN [F21V]	4.52
SELGDYDPDECGSDYISEFRMAPN [F21M]	4.43
SELGDYDPDECGSDYISEFRKAPN [F21K]	5.22
SELGDYDPDECGSDYISEFRHAPN [F21H]	4.17
SELGDYDPDECGSDYISEFRAAPN [F21A]	4.75
SELGDYDPDECGSDYISEFRQAPN [F21Q]	4.97
SELGDYDPDECGSDYISEFREAPN [F21E]	4.78
SELGDYDPDECGSDYISEFRRAPN [F21R]	4.64

Variant	protein stability index
SELGDYDPDECGSDYISEFRPAPN [F21P]	4.96
SELGDYDPDECGSDYISEFRIAPN [F21I]	4.38
SELGDYDPDECGSDYISEFRWAPN [F21W]	4.24
SELGDYDPDECGSDYISEFRDAPN [F21D]	4.68
SELGDYDPDECGSDYISEFRLAPN [F21L]	4.61
SELGDYDPDECGSDYISEFRNAPN [F21N]	4.74
SELGDYDPDECGSDYISEFRTAPN [F21T]	4.87
SELGDYDPDECGSDYISEFRGAPN [F21G]	5.01
SELGDYDPDECGSDYISEFRFAPR [N24R]	2.44
SELGDYDPDECGSDYISEFRFAPE [N24E]	3.33
SELGDYDPDECGSDYISEFRFAPS [N24S]	1.87
SELGDYDPDECGSDYISEFRFAPP [N24P]	2.84
SELGDYDPDECGSDYISEFRFAPD [N24D]	2.89
SELGDYDPDECGSDYISEFRFAPQ [N24Q]	2.09
SELGDYDPDECGSDYISEFRFAPA [N24A]	2.6
SELGDYDPDECGSDYISEFRFAPV [N24V]	2.55
SELGDYDPDECGSDYISEFRFAPF [N24F]	2.25
SELGDYDPDECGSDYISEFRFAPY [N24Y]	2.15
SELGDYDPDECGSDYISEFRFAPW [N24W]	2.45
SELGDYDPDECGSDYISEFRFAPT [N24T]	2.12
SELGDYDPDECGSDYISEFRFAPG [N24G]	2.33
SELGDYDPDECGSDYISEFRFAPL [N24L]	2.02
SELGDYDPDECGSDYISEFRFAPI [N24I]	2.55
SELGDYDPDECGSDYISEFRFAPK [N24K]	1.69

Variant	protein stability index
SELGDYDPDECGSDYISEFRFAPH [N24H]	1.66
SELGDYDPDECGSDYISEFRFAPM [N24M]	1.79
SELGDYDPDECGSDYISEFRFAPC [N24C]	1.64
SELGDYDPDECGSDYISEFTFAPN [R20T]	4.18
SELGDYDPDECGSDYISEFMFAPN [R20M]	3.92
SELGDYDPDECGSDYISEFDFAPN [R20D]	4.72
SELGDYDPDECGSDYISEFHFAPN [R20H]	4.32
SELGDYDPDECGSDYISEFAFAPN [R20A]	4.25
SELGDYDPDECGSDYISEFFFAPN [R20F]	4.09
SELGDYDPDECGSDYISEFIFAPN [R20I]	3.75
SELGDYDPDECGSDYISEFGFAPN [R20G]	4.79
SELGDYDPDECGSDYISEFKFAPN [R20K]	4.53
SELGDYDPDECGSDYISEFEFAPN [R20E]	5.02
SELGDYDPDECGSDYISEFYFAPN [R20Y]	3.75
SELGDYDPDECGSDYISEFSFAPN [R20S]	4.68
SELGDYDPDECGSDYISEFWFAPN [R20W]	3.92
SELGDYDPDECGSDYISEFPFAPN [R20P]	4.81
SELGDYDPDECGSDYISEFLFAPN [R20L]	4.02
SELGDYDPDECGSDYISEFVFAPN [R20V]	4.4
SELGDYDPDECGSDYISEFQFAPN [R20Q]	4.7
SELGDYDPDECGSDYISEFCFAPN [R20C]	4.56
SELGDYDPDECGSDYISEFNFAPN [R20N]	4.54
